The nature of this data set: soluble on expression in E. coli; label from the status in PepcDB or PDB records.
As for “MQKKRFSKKYEVHYYEINSMQEATLLSLLNYMEDCAISHSTSAGYGVNELLAADAGWVLYRWLIKIDRLPKLGETITVQTWASSFERFYGNREFIVLDGRDNPIVKASSVWIYFNIKKRKPMRIPLEMGDAYGIDETRALEEPFTDFDFDFEPKVIEEFTVKRSDIDTNSHVNNKKYVDWIMETVPQQIYDNYKVTSLQIIYKKESSLGSGIKAGCVIDEQNTDNPRLLHKIWDKNTGLELVSAETIWQKIQS”, the “soluble on expression in E. coli” value is given as “soluble”.

Consider “MQKRVTDEEIKERLGKIKSRIAVMSGKGGVGKSTVTALLAVHYARQGKKVGILDADFLGPSIPILFGLRNARIAVSAEGLEPVLTQKYGIKVMSMQFLLPKENTPVIWRGPLIAGMIREFLGRVAWGELDHLLIDLPPGTGDAPLTVMQDAKPTGVVVVSTPQELTAVIVEKAINMAEETNTSVLGLVENMSYFVCPNCGHKSYIFGEGKGESLAKKYNIGFFTSIPIEEELIKLADSGRIEEYEKDWFESAPFLEHHHHHH”, for which the “soluble on expression in E. coli” value was “soluble”.

As for “MQKVESIIIGGGPCGLSAAIEQKRKGIDTLIIEKGNVVESIYNYPTHQTFFSSSDKLSIGDVPFIVEESKPRRNQALVYYREVVKHHQLKVNAFEEVLTVKKMNNKFTITTTKDVYECRFLTIATGYYGQHNTLEVEGADLPKVFHYFKEAHPYFDQDVVIIGGKNSAIDAALELEKAGANVTVLYRGGDYSPSIKPWILPNFTALVNHEKIDMEFNANVTQITEDTVTYEVNGESKTIHNDYVFAMIGYHPDYEFLKSVGIQINTNEFGTAPMYNKETYETNIENCYIAGVIAAGNDANTIFIENGKFHGGIIAQNMLAKKQTPLES”, the “soluble on expression in E. coli” value was “soluble”.

On to “MQLILLLVSLLMLIATFIEARDSDIDKKSLRTERLGFCPRYETWRKCGNGCEKSCTHPRQPPFSQCKLPCIPYSCRCNPGFYRDNQGTGRCVRLRRCKKW”, for which the “soluble on expression in E. coli” value is reported as “not soluble”.

In the case of “MQLKGKTAIVTGSSRGLGKAIAWKLGNMGANIVLNGSPASTSLDATAEEFKAAGINVVVAKGDVKNPEDVENMVKTAMDAFGRIDILVNNAGITRDTLMLKMSEKDWDDVLNTNLKSAYLCTKAVSKIMLKQKSGKIINITSIAGIIGNAGQANYAASKAGLIGFTKSIAKEFAAKGIYCNAVAPGIIKTDMTDVLPDKVKEMYLNNIPLKRFGTPEEVANVVGFLASDDSNYITGQVINIDGGLVM”, the “soluble on expression in E. coli” value is on record as “soluble”.

Consider “MQLSKFFQKPQLLFRVAQPKDKENILKFLDAHFAKEEPCARALKLSPETSRGIFTTTVTRCLNFPFSTVVLQENDEIAACLLASVWNRTDPIDSADFNSSGMPENLKLFVQFINSAHSNFWKIAPPNVNSIIHREIGSVAPQFTRKGIATRMVTTNMTKTNLKKYNIGGVLSETSSLANQIVLQKAGFKCLKELPYSAIVDSKGNRVLRPDDGTTSLCLNFKPIEEYENLPE”, for which the “soluble on expression in E. coli” value is “not soluble”.

Regarding “MQLSRQDEPLYLGLAETLRDELAGYQPGDYLPAEFQLAERFSVNRHTIRRAVDELVREGSVLRRQGKGTQVLERPLIYPMQADSAYSQSLSAQGVGVEAILLLRRECQASHEDALHLGLAEHAPVIELQTLRKLDGQAVSLIFHRYSAVYHELLADYQGGSVRQYLAECGLPLSRAQSLIGARLPSREEAGLLLMPRHMPALTVLTVSCDGAGQPVELSRSVSRSDRFQYQVATAIPTR”, the “soluble on expression in E. coli” value is reported as “not soluble”.

As for “MQLYVVLCFLVLLGLSAGQMTFTDQWTKKRATLHKQLPVVTPEEPICPSDRVQAVFEQLDQLQKAQQRLTEYLASCAYPVEVPQKAEKM”, the “soluble on expression in E. coli” value was “not soluble”.

On to “MQMKRTAFFISDGTGITAETLGQSLLAQFENISFVKLTRPYIDTEEKARAMVQQINNAAESDGARPIIFDTIVNRDIRAVLAQSNGFMIDIFATFLSPLEQELSADSSYSVGKSHSIGHNSNYMDRIEAVNFALDNDDGARTHYYDKADLILVGVSRCGKTPTCLYMALQYGIRAANYPLTEEDMERLQLPNALKQYKHKLFGLTIDPDRLTAIRNERKPNSRYASFAQCEFEVREVESLFRRENIAYINSTHFSVEEISAKILVEKGVERRFKLEHHHHHH”, for which the “soluble on expression in E. coli” value is “not soluble”.

As to “MQNAILLVSCPDRKGLVKEISSFIADNGGNIVSFDQHIDEQTKTFLARVEWSLEDFKIPREKIENEFKKVAQKFSMNFQISFSDYVKKVAIFVSKQEHCFYDLMHRFYSGELKGEVKLVISNHEKARKTAEFFGVPFYHIPKTKENKLEAEKRELELLKEYGVELVVLARYMQILSPKFVKEYENKIINIHHSFLPAFPGAKPYERAFGKGVKIIGATAHYVTEELDEGPIIEQDVVRVSHKDSLEDFIRKGKDIEKVVLARAVKWHLEDKILVYNGKTVVFE”, the “soluble on expression in E. coli” value was “soluble”.

For “MQNPIDSLLYVKISAEQAGKIFENLESSIPLPIQLSEPGQKEDFKAENIKPEMILAGMLTVFAYDRENPHITYYRKIFNLLRPDIRKEMTEAAIIKIKNNDFDMAEEILLSLEGLNPDDGITKLNLALLMEERSQFCEMRELFEDALSFNKRAEELYSELILFEPPLPGVFFNAAYFFIKQKNYIKAKSLLKTYLEIENDSSETAEFRKAKASELLKTISEQALDDELFQKAYKCIDLGEEEKAAESIKLFLRKNPKVWNAWFLLGWALRRMGRWEDARSSFLKTIELLENSEISDKEPLCDVYNELAICLMELELFDEAEKHLINALSLDSENIKIISNLGTLALKQGKQEEAEAFFRTVLEINPDDKIALNVLGKPRA”, the “soluble on expression in E. coli” value was “not soluble”.

Turning to “MQPEEGTGWLLELLSEVQLQQYFLRLRDDLNVTRLSHFEYVKNEDLEKIGMGRPGQRRLWEAVKRRKALCKRKSWMSKVFSGKRLEAEFPPHHSQSTFRKTSPAPGGPAGEGPLQSLTCLIGEKDLRLLEKLGDGSFGVVRRGEWDAPSGKTVSVAVKCLKPDVLSQPEAMDDFIREVNAMHSLDHRNLIRLYGVVLTPPMKMVTELAPLGSLLDRLRKHQGHFLLGTLSRYAVQVAEGMGYLESKRFIHRDLAARNLLLATRDLVKIGDFGLMRALPQNDDHYVMQEHRKVPFAWCAPESLKTRTFSHASDTWMFGVTLWEMFTYGQEPWIGLNGSQILHKIDKEGERLPRPEDCPQDIYNVMVQCWAHKPEDRPTFVALRDFLLEAQPTDMRALQDFEEPDKLHIQMNDVITVIEGRAENYWWRGQNTRTLCVGPFPRNVVTSVAGLSAQDISQPLQNSFIHTGHGDSDPRHCWGFPDRIDELYLGNPMDPPDLLSVELSTSRPPQHLGGVKKPTYDPVSEDQDPLSSDFKRLGLRKPGLPRGLWLAKPSARVPGTKASRGSGAEVTLIDFGEEPVVPALRPCPPSLAQLAMDACSLLDETPPQSPTRALPRPLHPTPVVDWDARPLPPPPAYDDVAQDEDDFEICSINSTLVGAGVPAGPSQGQTNYAFVPEQARPPPPLEDNLFLPPQGGGKPPSSAQTAEIFQALQQECMRQLQAPGSPAPSPSPGGDDKPQVPPRVPIPPRPTRPHVQLSPAPPGEEETSQWPGPASPPRVPPREPLSPQGSRTPSPLVPPGSSPLPPRLSSSPGKTMPTTQSFASDPKYATPQVIQAPGAGGPCILPIVRDGKKVSSTHYYLLPERPSYLERYQRFLREAQSPEEPTPLPVPLLLPPPSTPAPAAPTATVRPMPQAALDPKANFSTNNSNPGARPPPPRATARLPQRGCPGDGPEAGRPADKIQMAMVHGVTTEECQAALQCHGWSVQRAAQYLKVEQLFGLGLRPRGECHKVLEMFDWNLEQAGCHLLGSWGPAHHKR”, the “soluble on expression in E. coli” value is “not soluble”.

Take “MQPIPDVNQRIARISAHLHPPKSQMEESSALRRANCRAKGGAPGFKVAILGAAGGIGQPLAMLMKMNPLVSVLHLYDVVNAPGVTADISHMDTGAVVRGFLGQQQLEAALTGMDLIIVPAGVPRKPGMTRDDLFKINAGIVKTLCEGIAKCCPRAIVNLISNPVNSTVPIAAEVFKKAGTYDPKRLLGVTMLDVVRANTFVAEVLGLDPRDVDVPVVGGHAGVTILPLLSQVKPPSSFTQEEISYLTDRIQNGGTEVVEAKAGAGSATLSMAYAAVKFADACLRGLRGDAGVIECAFVSSQVTELPFFASKVRLGRNGIEEVYSLGPLNEYERIGLEKAKKELAGSIEKGVSFIRSHHHHHH”: the “soluble on expression in E. coli” value is on record as “soluble”.

On to “MQPLLEAQKKLLPDLLDVMQKRYQILHSISLMAPIGRRALAASLGMSERVLRSETEFLKGQNLLSADVSGMRLTEEGQALLHTLNDLMREALGLKELEAALQEQLGIPRVIVVAGDSDRSPWVKKEMGRACVACMKELLEPGDIVAVAGGTTMAAVAEMMTPDSKLRDVLFVPARGGLGEDVENQANTICAKMAEKAMGRYRLLHVPDQLSDEAYASLVEEPAVKEVLELIQSCRMVVHGIGEAVTMAKRRKTPPVEMEKIIARHAVAEAFGYYFNEYGDVVHKVKTVGIQLEHLPHVEHVIAVAGGASKAKAIRAYMKRAPHSLLVTDEGAAKAFVGE”, for which the “soluble on expression in E. coli” value is “not soluble”.

In the case of “MQQNIQYTYSSDPRSGGNQNQQLHGISQFQQNSYQPTTYSNSNANNFHSSNSATFIPNSVTQTPQRRMGEEKSLVNMLDAYFIDSTTPSTSTSWNNQQPVQMSSIQQSVGSYNQQIPQLKVGDVDLQVEGMNVKLSSSPDKGEKDRVKKARQAEAARMRYHRLSNEEKRELNLKRTLAQKRKRQREKEMEELESILRETNDIQEDPDITEQLREKRMRAKWAEAARTRYARMTPEERRAHNTRRRMRQMQNAMSAIKACGMATGDPQKDDEAVRLHIKTQNAKKAEAARQRYHRMNDDEKRVYNQRRTEAFRRRRMEEEMLLAMPIGRINGEALDRAQQIVVRNAKRAEAARLRYQRMTPDQRKSYNQKRYTPKRRRNEMDDMISAGQMAVGSSGTITMGTGTPAKKDDMDALSSLERDVVKRTQHAQQILLRQRANQSSGTPRSVTPPPQAYIISNGQQQHQQLVGNQGNNGIGQHQVLHQGHMQQQQIQVSHQDFQQSSQSIPQNIYTSGMIIQNQGQQQQGQQQQQGQSQQILNNPYRT”, the “soluble on expression in E. coli” value is reported as “not soluble”.

Turning to “MQREKVDVLVIGAGPAGTVAASLVNKSGFKVKIVEKQKFPRFVIGESLLPRCMEHLDEAGFLDAVKAQGFQQKFGAKFVRGKEIADFNFSDQFSNGWNWTWQVPRGNFDKTLADEAARQGVDVEYEVGVTDIKFFGTDSVTTIEDINGNKREIEARFIIDASGYGRVIPRMFGLDKPSGFESRRTLFTHIKDVKRPVAAEMEGNRITAVVHKPKVWIWVIPFSNGNTSVGFVGEPSYFDEYTGTPEERMRAMIANEGHIAERFKSEEFLFEPRTIEGYAISASKLYGDGFVLTGNATEFLDPIFSSGATFAMESGSKGGKLAVQFLKGEEVNWEKDFVEHMMQGIDTFRSFVTGWYDGTLHAVFFAKNPDPDHKRMICSVLAGYVWDKNNPFVKKHNTILKTLAKVIQMGEEALEHHHHHH”, the “soluble on expression in E. coli” value is recorded as “soluble”.

Consider “MQRIIKNNEVIDETWHLLPKDTTLDSLSNCDDLIVPLALWREHAHALKARDGGLGVWLDSDEEAEEIGEDVDQFQVIALNFPAFTDGRSFSNARLLRDRYGFKGELRAIGDVLRDQLFYMRRCGFDAFAVRADKDPYDALEGLKDFSVTYQAATDEPLPLFRRR”, for which the “soluble on expression in E. coli” value is recorded as “not soluble”.

Consider “MQSAELKQFVVDKIDDLKARDVVVIDVSNQSNITDYMVICSGTSKTHVKAIAENLVIEAKAAGIPPIGIEGRDSSEWVLVDMGNVILHVMQDQTRDFYQLEKLWSEKQA”, for which the “soluble on expression in E. coli” value is listed as “soluble”.

Take “MQSIKGNHLVKVYDYQEDGSVLLTCDAEAKNITWFKDGKMIGFLTEDKKKWNLGSNAKDPRGMYQCKGSQNKSKPLQVYYRMGSADDAKKDAAKKDDAKKDDAKKDGSDGNEEMGGITQTPYKVSISGTTVILTCPQYPGSEILWQHNDKNIGGDEDDKNIGSDEDHLSLKEFSELEQSGYYVCYPRGSKPEDANFYLYLRARV”: the “soluble on expression in E. coli” value is “soluble”.

Values taken from the DeepSol protein solubility set.
